B1: S-60-15 [N33 (wt)] huIgG1 LALAPS (antibody, V domains shown)
VH: QVQLQESGPGLVKPSETLSLTCAVSGYSISSGYYWGWIRQPPGKGLEWIGTIYHSGSTYYNPSLKSRVTISVDTSKNQFSLKLSSVTAADTAVYYCARQGSIKQGYYGMDVWGQGTTVTVSS
VL: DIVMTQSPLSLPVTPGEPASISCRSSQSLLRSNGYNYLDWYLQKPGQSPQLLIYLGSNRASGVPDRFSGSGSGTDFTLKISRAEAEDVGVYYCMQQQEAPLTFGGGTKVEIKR
notes: huIgG1 with L234A/L235A/P331S (LALAPS)
B2: S-60-15.6 [N33H] (antibody, human IgG1, kappa, L234A L235A, V domains shown)
VH: QVQLQESGPGLVKPSETLSLTCAVSGYSISSGYYWGWIRQPPGKGLEWIGTIYHSGSTYYNPSLKSRVTISVDTSKNQFSLKLSSVTAADTAVYYCARQGSIKQGYYGMDVWGQGTTVTVSS
VL: DIVMTQSPLSLPVTPGEPASISCRSSQSLLRSHGYNYLDWYLQKPGQSPQLLIYLGSNRASGVPDRFSGSGSGTDFTLKISRAEAEDVGVYYCMQQQEAPLTFGGGTKVEIKR
notes: huIgG1 LALAPS
B3: S-60-15.2 [N33S] (antibody, human IgG1, kappa, L234A L235A, V domains shown)
VH: QVQLQESGPGLVKPSETLSLTCAVSGYSISSGYYWGWIRQPPGKGLEWIGTIYHSGSTYYNPSLKSRVTISVDTSKNQFSLKLSSVTAADTAVYYCARQGSIKQGYYGMDVWGQGTTVTVSS
VL: DIVMTQSPLSLPVTPGEPASISCRSSQSLLRSSGYNYLDWYLQKPGQSPQLLIYLGSNRASGVPDRFSGSGSGTDFTLKISRAEAEDVGVYYCMQQQEAPLTFGGGTKVEIKR
notes: huIgG1 LALAPS
B4: S-60-15.8 [N33Q] (antibody, human IgG1, kappa, L234A L235A, V domains shown)
VH: QVQLQESGPGLVKPSETLSLTCAVSGYSISSGYYWGWIRQPPGKGLEWIGTIYHSGSTYYNPSLKSRVTISVDTSKNQFSLKLSSVTAADTAVYYCARQGSIKQGYYGMDVWGQGTTVTVSS
VL: DIVMTQSPLSLPVTPGEPASISCRSSQSLLRSQGYNYLDWYLQKPGQSPQLLIYLGSNRASGVPDRFSGSGSGTDFTLKISRAEAEDVGVYYCMQQQEAPLTFGGGTKVEIKR
notes: huIgG1 LALAPS
B5: S-60-15.4 [N33R] (antibody, human IgG1, kappa, L234A L235A, V domains shown)
VH: QVQLQESGPGLVKPSETLSLTCAVSGYSISSGYYWGWIRQPPGKGLEWIGTIYHSGSTYYNPSLKSRVTISVDTSKNQFSLKLSSVTAADTAVYYCARQGSIKQGYYGMDVWGQGTTVTVSS
VL: DIVMTQSPLSLPVTPGEPASISCRSSQSLLRSRGYNYLDWYLQKPGQSPQLLIYLGSNRASGVPDRFSGSGSGTDFTLKISRAEAEDVGVYYCMQQQEAPLTFGGGTKVEIKR
notes: huIgG1 LALAPS
B6: S-60-15.7 [N33K] (antibody, human IgG1, kappa, L234A L235A, V domains shown)
VH: QVQLQESGPGLVKPSETLSLTCAVSGYSISSGYYWGWIRQPPGKGLEWIGTIYHSGSTYYNPSLKSRVTISVDTSKNQFSLKLSSVTAADTAVYYCARQGSIKQGYYGMDVWGQGTTVTVSS
VL: DIVMTQSPLSLPVTPGEPASISCRSSQSLLRSKGYNYLDWYLQKPGQSPQLLIYLGSNRASGVPDRFSGSGSGTDFTLKISRAEAEDVGVYYCMQQQEAPLTFGGGTKVEIKR
notes: huIgG1 LALAPS
B7: S-60-15.3 [N33G] (antibody, human IgG1, kappa, L234A L235A, V domains shown)
VH: QVQLQESGPGLVKPSETLSLTCAVSGYSISSGYYWGWIRQPPGKGLEWIGTIYHSGSTYYNPSLKSRVTISVDTSKNQFSLKLSSVTAADTAVYYCARQGSIKQGYYGMDVWGQGTTVTVSS
VL: DIVMTQSPLSLPVTPGEPASISCRSSQSLLRSGGYNYLDWYLQKPGQSPQLLIYLGSNRASGVPDRFSGSGSGTDFTLKISRAEAEDVGVYYCMQQQEAPLTFGGGTKVEIKR
notes: huIgG1 LALAPS

For seven molecules, Kd, koff and kon results are on record in patent US20200024348A1 (Alector, published 2020).

The target in the assay is T1, histidine-tagged human SORT1 (R&D Systems) (human, UniProt Q99523 78-755).
T1 construct: Bought recombinant protein; also called His-tagged human SORT1; not shown: histidine tag
T1 sequence: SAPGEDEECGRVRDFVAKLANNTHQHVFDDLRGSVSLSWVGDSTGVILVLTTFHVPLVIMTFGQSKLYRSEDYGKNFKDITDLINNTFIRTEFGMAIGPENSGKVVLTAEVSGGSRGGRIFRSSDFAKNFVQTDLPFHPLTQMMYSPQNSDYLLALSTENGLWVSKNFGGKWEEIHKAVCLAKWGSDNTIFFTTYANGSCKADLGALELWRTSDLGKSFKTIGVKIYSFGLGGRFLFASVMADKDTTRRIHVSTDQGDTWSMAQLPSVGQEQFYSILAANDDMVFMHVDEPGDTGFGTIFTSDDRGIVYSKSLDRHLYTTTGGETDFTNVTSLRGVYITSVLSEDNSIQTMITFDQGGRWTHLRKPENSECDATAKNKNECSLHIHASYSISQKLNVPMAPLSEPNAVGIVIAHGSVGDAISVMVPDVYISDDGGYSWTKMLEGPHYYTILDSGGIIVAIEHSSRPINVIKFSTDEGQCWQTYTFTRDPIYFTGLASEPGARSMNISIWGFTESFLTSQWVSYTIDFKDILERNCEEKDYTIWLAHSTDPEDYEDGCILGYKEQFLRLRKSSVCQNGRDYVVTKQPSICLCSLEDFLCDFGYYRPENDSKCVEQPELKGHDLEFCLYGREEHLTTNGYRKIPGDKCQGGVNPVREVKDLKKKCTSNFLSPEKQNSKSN
In words: BLI (Octet RED96), antibody captured on anti-human IgG Fc sensor, 20 nM His-tagged human SORT1, 1:1 fit. The method, then:
The G1m3 or G1m(f) allotype with L234A/L235A/P331S (“LALAPS” motif) mutations was used as a background (Jefferis R and Lefranc M-P, Mabs, 2009 July-August; 1(4): 332-338). […] Bio-layer interferometry (BLI) data was collected at a rate of 5 Hz at 25° C. on a Pall ForteBio Octet RED96 instrument. Data analysis was performed using ForteBio Data Analysis Software, version 9.0. Standard kinetic buffer (PBS, 0.1 BSA, 0.02 Tween-20, pH 7.2) was used for the assay and for preparing reagents. For all assays, sensor tips were equilibrated in buffer prior to analysis.
Twenty nM histidine-tagged human SORT1 (R&D Systems, Minneapolis, Minn.) was then bound to the captured anti-SORT1 surface (200 s association time, 1200 s dissociation time). […] Full, local fitting using a 1:1 interaction model was applied to extract association and dissociation rate constants (kₐ and kd, respectively) for each N33 mutant. Affinity constants (KD) were calculated from the ratio […]. Different amino acid substitutions were made at N33 and tested for binding to SORT1 in an off-rate screen (under non-stress conditions) as shown in Table 9.
Molecule B1 displayed a Kd of 0.27 nM.

B2 came in with a dissociation constant Kd of 0.823 nM, a koff of 0.00046 s⁻¹ and a kon of 548000 M⁻¹ s⁻¹.

B3 registered a Kd of 0.44 nM, a koff of 0.000247 s⁻¹ and an on-rate (kon) of 563000 M⁻¹ s⁻¹.

The molecule B4 registered a Kd of 0.905 nM, a koff of 0.000653 s⁻¹ and an on-rate constant (kon) of 609000 M⁻¹ s⁻¹.

B5 had a Kd of 0.88 nM, a koff of 0.00046 s⁻¹ and a kon of 524000 M⁻¹ s⁻¹.

Take B6: binding was characterised by a dissociation constant (Kd) of 0.965 nM, the koff was 0.000547 s⁻¹ and the kon came out at 563000 M⁻¹ s⁻¹.

As to B7, binding was put at a Kd of 0.825 nM, the off-rate constant (koff) was found to be 0.000411 s⁻¹ and the kon turned out to be 498000 M⁻¹ s⁻¹.

As usually defined, the Kd is the free concentration of one partner at which half of the binding sites on the other are occupied at equilibrium, for simple one-to-one binding. Higher therefore signals weaker binding. As a reminder, the koff is a measure of how fast the partners let go of each other. Low readings indicate a long-lived complex, high ones a short-lived complex. The kon is the second-order rate constant of association. A low value points to slow association.
